The data set can be described thus: yeast display, Sf9 membrane polyspecificity reagent, FACS + sequencing; frameworks hold sequencing errors. The gist of the method:
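A synthetic nanobody library was expressed on Saccharomyces cerevisiae BJ5465 by galactose induction for 36–48 hours. The library was stained for 1 hour at 4 °C with 10% biotinylated, detergent-solubilized Sf9 membrane reagent and enriched with streptavidin microbeads before FACS. Low and high (top ~1%) gates were set on anti-HA fluorescence for expression and streptavidin fluorescence for reagent binding, and each polyreactivity label reflects the gate of origin.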
As for “QVQLVESGGGLVQAGGSLRLSCAASGFIFRWYAMGWYRQAPGKERELVASITRGGSTNYADSVKGRFTISRDNAKNTVYLQMNSLKPEDTAVYYCAAGWRRAAGIQYWYGYWGQGTQVTVSS”, the “polyreactivity (PSR sort gate)” value was “high polyreactivity”.

As to “QVQLVESGGGLVQAGGSLRLSCAASGFIFRWYAMGWYRQEPGKERELVAAITWRGGSTYADSVKGRFTISRDNAKNTVYLQMNSLKPEVTAVYYCAAETHRRYDYWGQGTQVTVSS”, the “polyreactivity (PSR sort gate)” value was “high polyreactivity”.

As for “QVQLVESGGGLVQAGGSLRLSCAASGFIFRYNTMGWYRQAPGIVRELVAAISVSGARTYYADSVKGRFTISRDNAKKTVYLQMNSLKPEDTAVYYCNRRYPFYSRYNNDYWGLGTQVTVSS”, the “polyreactivity (PSR sort gate)” value is recorded as “high polyreactivity”.

“QVQLVESGGGLVQAGGSLRLSCAASGFIFRYNTMGWYRQEPGKERELVAAISKSGGRTYYADSVKGRFTISRDNAMNTVYLQMNSLNPEDTAVYYCAATLSYTGSKRYDYWGQGTQVTVSS”: the “polyreactivity (PSR sort gate)” value is given as “high polyreactivity”.

Consider “QVQLVESGGGLVQAGGSLRLSCAASGFIFRYYAMGWSRQAPGKERELVASINSGGSTYYADSVKGRFTISRDNAKNTVYLQMNSLKPEDTAVYYCAVVLQYDWAYEKSYYWGQGTQVTVSS”, for which the “polyreactivity (PSR sort gate)” value was “low polyreactivity”.

For “QVQLVESGGGLVQAGGSLRLSCAASGFIFRYYAMGWSRQAPGKERELVAVISSNGARTSYADSVKGRFTISRDNAKNTVYLQMNSLKPEDTAVYYCNARAWSRFPPVGHDYWGQGTQVTVSS”, the “polyreactivity (PSR sort gate)” value was “high polyreactivity”.

For “QVQLVESGGGLVQAGGSLRLSCAASGFIFRYYAMGWYRQAPGKERELVAAISRGGSTNYADSVKGRFTISRDNAKNTVYLQMNSLKPEDTAVYYCAARTVRARSKFEYWGQGTQVTVSS”, the “polyreactivity (PSR sort gate)” value is listed as “high polyreactivity”.

As to “QVQLVESGGGLVQAGGSLRLSCAASGFIFRYYAMGWYRQAPGKERELVAAISRSGGRTYYADSVKGRFTISRDNAKNTVYLQMNSLKPEDTAVYYCAARYPVRPDDGYWGQGTQVTVSS”, the “polyreactivity (PSR sort gate)” value is recorded as “high polyreactivity”.

On to “QVQLVESGGGLVQAGGSLRLSCAASGFIFRYYAMGWYRQAPGKERELVAAISSGGRTSYADSVKGRFTISRDNAKNTVYLQMNSLKPEDTAVYYCAADRWRGLFYYGNDYWGQGTQVTVSS”, for which the “polyreactivity (PSR sort gate)” value was “high polyreactivity”.

Consider “QVQLVESGGGLVQAGGSLRLSCAASGFIFRYYAMGWYRQAPGKERELVAAISSRAGRTYADSVKGRFTISRDNAKYSVYLQMNSLKPEDTAVYYCAVRSKRKDVGYWGQGTQVTVSS”, for which the “polyreactivity (PSR sort gate)” value is reported as “high polyreactivity”.

For “QVQLVESGGGLVQAGGSLRLSCAASGFIFRYYAMGWYRQAPGKERELVAAITSRGSSTYYADSVKGRFTISRDNAKNTVYLQMNSLKPDDTAVYYCAARLRGDYVRYDYWGQGTQVTVSS”, the “polyreactivity (PSR sort gate)” value is “high polyreactivity”.

In the case of “QVQLVESGGGLVQAGGSLRLSCAASGFIFRYYAMGWYRQAPGKERELVAAITSRGSSTYYADSVKGRFTISRDNAKNTVYLQMNSLKPEDTAVYYCAARSSATRSWIASRPGYRYNYWGQGTQVTVSS”, the “polyreactivity (PSR sort gate)” value was “high polyreactivity”.

Turning to “QVQLVESGGGLVQAGGSLRLSCAASGFIFRYYAMGWYRQEPGKERELVAAIDYSGGSTNYADSVKGRFTISRDNAKNTVYLQMNSLKPEDTAVYYCNAEYTWHRGYDYWGQGTQVTVSS”, the “polyreactivity (PSR sort gate)” value is on record as “low polyreactivity”.

On to “QVQLVESGGGLVQAGGSLRLSCAASGFIFRYYAMGWYRQEPGKERELVAAISGSGGSKYYADSVKGRFTISRDNAKNNVYLQMNSLKQEDTAVYYFAKSYGSHRKIRTSFGYWGQGTQVTVSS”, for which the “polyreactivity (PSR sort gate)” value is listed as “high polyreactivity”.

For the sequence “QVQLVESGGGLVQAGGSLRLSCAASGFIFRYYAMGWYRQEPGKERELVAAITSRGSSTYYADSVKGRFTISRDNAKNTVYLQMNSLKPEDTAVYYCAARLRGDYVRYDYWGQGTQVTVSS”, the “polyreactivity (PSR sort gate)” value is “high polyreactivity”.

With “QVQLVESGGGLVQAGGSLRLSCAASGFIFRYYARGWYRQAPGKERELVAAITSTGRTYYADSVKGRFTISRDNAKNTVYLQMNSLKPEDTAVYYCAKAWLRWGEDYWGQGTQVTVSS”, the “polyreactivity (PSR sort gate)” value was “low polyreactivity”.

For the sequence “QVQLVESGGGLVQAGGSLRLSCAASGFIFSAYAMGWYRQAPGKERELVAAISYSGGTTYYADSVKGRFTISRDNAKNTVYLQMNSLKPEDTAVYYCAAGVGYWGQGTQVTVSS”, the “polyreactivity (PSR sort gate)” value was “high polyreactivity”.

In the case of “QVQLVESGGGLVQAGGSLRLSCAASGFIFSIYVMGWYRQAPGKERELVATISSTGSTNYADSVKGRFTISRDNAKNTVYLQMNSLKPEDTAVYYCAAYRRWWGQGTQVTVSS”, the “polyreactivity (PSR sort gate)” value is reported as “high polyreactivity”.

Consider “QVQLVESGGGLVQAGGSLRLSCAASGFIFSKYAMGWYRQAPGKERELVAAITRSGGRTYYADSVKGRFTISRDNAKNTVYLQMNSLKPEDSAVYYCAASWLYFGRDYWGQGTQVPVSS”, for which the “polyreactivity (PSR sort gate)” value was “high polyreactivity”.

Take “QVQLVESGGGLVQAGGSLRLSCAASGFIFSLYAMGWYRQAPGKERELVAVITWSDGRTYYADSVKGRFTISRDNAKNTVYLQMNSLKQEDTAVYYCAAADWITEYDYWGQGTQVTVSS”: the “polyreactivity (PSR sort gate)” value is “low polyreactivity”.

For “QVQLVESGGGLVQAGGSLRLSCAASGFIFSNYAMGWYRQAPGKERELVAAISRSGGSTYYADSVKGRFTISRDNAKNTVYLQMNSLKPEDTAVYYCAARHAPILGDHGMKYWGQGTQVTVSS”, the “polyreactivity (PSR sort gate)” value is given as “high polyreactivity”.

In the case of “QVQLVESGGGLVQAGGSLRLSCAASGFIFSNYAMGWYRQEPGKERELVAAISWSGTLTNYADSVKGRFTISRDNAKNTVYLQMNSLKPEDTAVYYCAAYGDYLYDYWGQGTQVTVSS”, the “polyreactivity (PSR sort gate)” value is listed as “low polyreactivity”.

Take “QVQLVESGGGLVQAGGSLRLSCAASGFIFSRNAMGWYRQAPGKEREFVAAISGRGGSTYYADSVKGRFTISRDNAKNTVYVQMNSLKPEDTAVYYCAVYSYGQTYSGYYLGQGTQVTVSS”: the “polyreactivity (PSR sort gate)” value is listed as “high polyreactivity”.

On to “QVQLVESGGGLVQAGGSLRLSCAASGFIFSRNVMGWYRQAPGKDRELVAAISRSGGSTYYADSVKGRFTISRDNAKNTVYLQMNSLKPEDTAVYYCAAVRRVYSQNDYWGQGTQVTVSS”, for which the “polyreactivity (PSR sort gate)” value is listed as “high polyreactivity”.

Consider “QVQLVESGGGLVQAGGSLRLSCAASGFIFSRYAMGWSRQAPGKERELVAAISSRGGSTYYADSVKGRFTISRDNAKNTVYLQMNSLKPEDTAVFYWIAVGSAHYDYWGQGTQVTVSS”, for which the “polyreactivity (PSR sort gate)” value is reported as “high polyreactivity”.

For the sequence “QVQLVESGGGLVQAGGSLRLSCAASGFIFSRYAMGWYRQAPGKERELVAAISIGGSTYYADSVKGRFTISRDNAKNTVYLQMNSLKPEDTAVYDCAVDYRHSSSWNAGPWEMYYWGQGTQVTVSS”, the “polyreactivity (PSR sort gate)” value is given as “low polyreactivity”.

In the case of “QVQLVESGGGLVQAGGSLRLSCAASGFIFSSYAMGSYRQAPGKERELVAAISWSGGSTYYADSVKGRFTISRDNAKNTVYLQMKSLKPEDAAVYYCASVTRIFDYWGQGTQVTVSS”, the “polyreactivity (PSR sort gate)” value is listed as “high polyreactivity”.

As to “QVQLVESGGGLVQAGGSLRLSCAASGFIFSSYAMGWYRPAPGKERELVAAISKSGGRTYYADSVKGRFTISRDNAKNTVYLQMNSLKPEDTSVYYCAKDVSDPFYDPFEYWGQGTQVTVSS”, the “polyreactivity (PSR sort gate)” value was “low polyreactivity”.

With “QVQLVESGGGLVQAGGSLRLSCAASGFIFSSYAMGWYRQAPGKERELVAAINSSGGRTYYADSVKGRFTISRDNAKNTVYLQMNSLKPEDTAVYYCAAVVWSYYVGDDYWGQGTQVTVSS”, the “polyreactivity (PSR sort gate)” value was “high polyreactivity”.

Consider “QVQLVESGGGLVQAGGSLRLSCAASGFIFSSYAMGWYRQAPGKESELVAAITSGGSTNYADSVKGRFTISRDNAKNTVYLQMNSLKPEDTADYYCATLPGGSWFFHWWSTGGDDEYWGQGTQVTVSS”, for which the “polyreactivity (PSR sort gate)” value was “low polyreactivity”.

(Values after the nanobody polyreactivity screen of Harvey et al. (2022).)
